B1: chicken vinculin domain 1 (Vd1; residues 1–258) (domain or fragment, UniProt P12003 1-258, looked up)
chain: MPVFHTRTIESILEPVAQQISHLVIMHEEGEVDGKAIPDLTAPVSAVQAAVSNLVRVGKETVQTTEDQILKRDMPPAFIKVENACTKLVRAAQMLQADPYSVPARDYLIDGSRGILSGTSDLLLTFDEAEVRKIIRVCKGILEYLTVAEVVETMEDLVTYTKNLGPGMTKMAKMIDERQQELTHQEHRVMLVNSMNTVKELLPVLISAMKIFVTTKNTKSQGIEEALKNRNFTVEKMSAEINEIIRVLQLTSWDEDAW
B2: talin 4-helix bundle (residues 1458–1584) (domain or fragment, mouse, UniProt P26039 1458-1584, looked up)
chain: QQGLVEPTQFARANQAIQMACQSLGEPGCTQAQVLSAATIVAKHTSALCNSCRLASARTANPTAKRQFVQSAKEVANSTANLVKTIKALDGDFTEENRAQCRAATAPLLEAVDNLSAFASNPEFSSV

Legend:
[1] = molecular target: talin(1359–1659), talin 9-helix module (mouse, UniProt P26039 1359-1659); assay: SEC
Chain of talin(1359–1659), talin 9-helix module (P26039 1359-1659): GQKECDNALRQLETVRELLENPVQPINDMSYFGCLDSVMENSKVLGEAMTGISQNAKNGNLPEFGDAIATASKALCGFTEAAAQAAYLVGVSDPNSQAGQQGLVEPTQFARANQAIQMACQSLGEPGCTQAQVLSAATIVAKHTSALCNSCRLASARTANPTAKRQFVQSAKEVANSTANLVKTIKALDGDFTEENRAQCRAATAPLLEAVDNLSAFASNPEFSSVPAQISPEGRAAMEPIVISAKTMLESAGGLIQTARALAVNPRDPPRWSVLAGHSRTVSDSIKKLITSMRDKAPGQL

[2] = molecular target: B1; assay: SEC

Row | Binder | binding result [1] | binding result [2]
1 | B1 | binds | –
2 | B2 | – | binds

Reference: article PMC2937989 (The Journal of Biological Chemistry, 2010)
